Experimental data: US6512161

Key:
[1] = target: rabbit apolipoprotein B-100 (rabbit) (UniProt P17165); assay: densitometry of non-reducing anti-apo(a) immunoblots, apo(a) transgenic rabbit plasma (n=3)
[2] = target: either human or rabbit apoB; assay: densitometry of non-reducing anti-apo(a) immunoblots, apoB/apo(a) transgenic rabbit plasma (n=3)

Sequence of UniProt P17165 (P17165 whole entry): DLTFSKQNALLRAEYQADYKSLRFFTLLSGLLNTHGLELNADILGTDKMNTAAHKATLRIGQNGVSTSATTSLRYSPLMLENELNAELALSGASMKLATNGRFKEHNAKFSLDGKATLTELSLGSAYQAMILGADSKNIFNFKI

percent of apo(a) bound [1] [%] | percent of apo(a) free [1] [%] | percent of apo(a) covalently bound [2] [%] | percent of apo(a) migrating as free apo(a) [2] [%] | Substance
20 | 80 |  |  | human apolipoprotein(a), P08519 20-2040
 |  | 80 | 20 | human apolipoprotein(a) (from UniProt P08519 20-2040)
